We go through two molecules from patent publication US20070167369A1, “Novel use of isolated polypeptide comprising four FAS-1 domains, EM1 domain and RGD motif” (KYUNGPOOK NATIONAL UNIVERSITY INDUSTRY-ACADEMIC COOPERATION …, priority 2004, published 2007).

Experiment [1] concerns Melanoma cells B16F10 tumor. Description: B16F10 subcutaneous tumor model, tumor growth and CD31 blood vessel count (Example 10-3). The format is in vivo, BALB/c nude mouse. The settings on record: 9 mg/kg or 18 mg/kg into the abdominal cavity one time a day. On the procedure: Melanoma cells B16F10 were suspended in medium at a density of 1×10^7 cells/ml. 0.1 ml of the cell suspension was injected subcutaneously to 5-6 week old BALB/c nude mouse (purchased from Jung-Ang Animal Inc. Ltd., Korea) to make a subcutaneous tumor model. When the volume of the tumor reached about 25 mm^3, mice having similar tumor size were selected and divided into three groups. The fas-1 domain (βig-h3 D-IV) prepared in Example 1 above was injected into the abdominal cavity of the mice of each group at the amount of 9 mg/kg or 18 mg/kg one time a day. A control was injected with saline solution. Thereafter, the body weight and tumor size of the mice were checked at intervals of three days. The diameter of the tumor was measured with slide calipers, and the volume of the tumor was calculated according to the equation 1 above.
Meanwhile, the tumor was removed after a given time, photographed with a stereoscopic microscope, weighed, and then fixed in 4% paraformaldehyde. The fixed tumor was immersed in 30%, 20% and 10% sucrose solutions one after another for one hour each solution, frozen rapidly with liquid nitrogen spray, and then left to stand at […] for two hours. The frozen tumor was sliced with a tissue microtome (Leica, Germany) to make tissue slides which were then dried at room temperature. Thereafter, the tissue slides were immuno-stained with CD31 (Pharmingen, San Diego, Calif.), an antibody that binds specifically to vascular endothelial cells. The immuno-stained slides were observed under a microscope, and the number of blood vessels from 3-5 LPF (low power fields; x100) was counted and averaged. Each group consisted of 5 or 6 members.

In another experiment the test system is pc/HEK293 cells. Description: Apoptosis by annexin V staining, pc/HEK293 control cells (Example 8). In kind it is cell-based. Particulars: annexin V FACS. On the procedure:
A control cell was transfected with a pcDNA3 vector containing no β3 cDNA or β5 cDNA fragment, and named “pc/HEK293”.
pc/HEK293 cells, β3/HEK293 cells and β5/HEK293 cells were stained with annexin V to identify an integrin that mediates the induction of endothelial cell apoptosis by the fas-1 domain. Each of the cells was suspended in medium at a density of 5×10^5 cells/ml, added to each well of 6-well plated and incubated at 37° C. overnight. Following this, a test was performed in the same manner as in Example 7-1 above.

The subject of experiment [2] is HUVECs. Description: Endothelial tube formation assay on Matrigel (Examples 9-1 and 11). The format is cell-based, human. On the procedure: First, 100 μl of Matrigel (Chemicon, International Inc, Temecula, Calif.) was added to each well of a 96-well plate and allowed to polymerize. HUVECs were suspended in medium at a density of 3×10^5 cells/ml, and 0.1 ml of the cell suspension was added to each well of the plate coated with Matrigel. At this time, 5 μM or 10 μM of the fas-1 domain (βig-h3 D-IV) prepared in Example 1 above was added together. A control was either treated with BSA or had no treatment. Thereafter, the cells were incubated at 37° C. for 16-18 hours. The cells were photographed, and endothelial tubes were counted and averaged.
For this purpose, the second fas-1 domain of βig-h3 (βig-h3 D-II) was prepared in the same manner as in Example 1-1 above. Since each domain of stabilin-II is insoluble, it was prepared in the form of soluble protein by cloning into the BamHI/XhoI sites of a Nus-conjugated pET43.1 vector (Novagen, USA). The prepared recombinant proteins were named “Nus-fas3” and “Nus-fas7”, respectively. A control to the second fas-1 domain of βig-h3 was treated with BSA, and a control to the fas-1 domain of stabilin-II was treated with a Nus protein. Thereafter, an endothelial tube formation assay was performed in the same manner as in Example 9-1.

In experiment [3] the test system is B16F10 tumor microvessels. Description: Intratumoral microvessel density, CD31 immunostaining (Example 15-2). In kind it is in vivo, BALB/c nude mice. The settings on record: B16F10 tumors of treated mice. On the procedure:
To determine whether the reduced size of the indicated protein-treated tumors coincides with reduced neovascularization, the present inventors used six representative tumors to quantify the density of microvessels after immunostaining with CD31 antibody.
Concretly, intratumoral microvessel density (MVD) was analyzed on paraffin sections of B16F10 tumor using a rat anti-mouse CD31 monoclonal antibody (PharMingen, San Diego, Calif.). Immunoperoxidase staining was done using the Vectastain avidin-biotin complex Elite reagent kit (Vector Laboratories, Burlingame, Calif.). Sections were counterstained with Hematoxyline. MVD was assessed initially by scanning the tumor at low power, followed by identification of four areas at the tumor periphery containing the maximum number of discrete microvessels, and counting individual microvessels at a high power field (x200). Each group consisted of six or eight tumor tissue.

The subject of experiment [4] is HUVECs. Description: Binding of biotin-βig-h3 to HUVECs, Western immuno-blotting (Example 3-4). More on the design: species or system human. The settings on record: biotinylated βig-h3. On the procedure:
To confirm that HUVECs adhesion that is mediated by βig-h3 depends on αvβ3 integrin, the present inventors tested the binding affinity of βig-h3 in the presence of an antibody that specifically blocks the function of the integrin. This binding assay was performed according to the method described by Maile, L. A., et al., J. Biol. Chem., […].
First, HUVECs were suspended in medium at a density of 1×10^5 cells/ml. 1 ml of the cell suspension was preincubated with anti-[…] antibody (LM609) or anti-αvβ5 antibody (P1F6) at 37° C. for 30 minutes. Thereafter, the preincubated cells were incubated with biotinylated βig-h3 (hereinafter, referred to as “biotin-βig-h3”) in a serum-free medium containing 0.1% BSA at 4° C. for 5 hours. The biotin-βig-h3 was added at concentrations of […], respectively. Then, the cells were washed three times with PBS buffer (pH 7.4), and dissolved at 4° C. in ice-cold buffer A (10 mM Tris-Cl, pH 7.4, 150 mM NaCl, 1% Nonidet P-40, 1% sodium deoxycholate, 0.5% SDS, 0.02% sodium azide, 1 mM EDTA, 1 mM phenylmethylsulfonyl fluoride). The cell lysates were clarified by centrifugation at 13,000 rpm for 30 minutes at 4° C. Equal amounts of protein were then separated by SDS-PAGE, 8% gel. The amount of biotin-βig-h3 was determined by Western immuno-blotting. […]

B1: fas-1 domain: recombinant protein containing the fourth fas-1 domain of human βig-h3 (SEQ ID NO: 64) (protein, listed as Homo sapiens)
chain: MGTVMDVLKGDNRFSMLVAAIQSAGLTETLNREGVYTVFAPTNEAFRALPPRERSRLLGDAKELANILKYHIGDEILVSGGIGALVRLKSLQGDKLEVSLKNNVVSVNKEPVAEPDIMATNGVVHVITNVL
For B1, in experiment [1], the “number of blood vessels stained with CD31 antibody in tumor” value was “significantly smaller than that of the control”, the “tumor growth rate with time” value is recorded as “much lower than that of the control” and the tumor size result is given as “little or no increase in size even at 10 days after tumor induction”. Also, the “induction of apoptosis of pc/HEK293 cells” value with pc/HEK293 cells is recorded as “not induced”. For the same molecule, in the experiment on HUVECs [2] (5 μM or 10 μM, 16-18 hours), the “inhibition of endothelial tube formation” value is given as “inhibited the formation of endothelial tubes on Matrigel in a dose-dependent manner”. Further, the “in vitro angiogenesis inhibitory effect compared with YH motif-containing peptide fragment of 18 amino acids” value in the experiment on HUVECs [2] (10 μM fas-1 domain vs 1 mM YH peptide) is “much higher”.

B2: truncated βig-h3: recombinant human βig-h3 with EMI domain, all four fas-1 domains and RGD motif; residues 68-653 of SEQ ID NO: 1 (SEQ ID NO: 66) (protein, listed as Homo sapiens)
chain: WYQRKICGKSTVISYECCPGYEKVPGEKGCPAALPLSNLYETLGVVGSTTTQLYTDRTEKLRPEMEGPGSFTIFAPSNEAWASLPAEVLDSLVSNVNIELLNALRYHMVGRRVLTDELKHGMTLTSMYQNSNIQIHHYPNGIVTVNCARLLKADHHATNGVVHLIDKVISTITNNIQQIIEIEDTFETLRAAVAASGLNTMLEGNGQYTLLAPTNEAFEKIPSETLNRILGDPEALRDLLNNHILKSAMCAEAIVAGLSVETLEGTTLEVGCSGDMLTINGKAIISNKDILATNGVIHYIDELLIPDSAKTLFELAAESDVSTAIDLFRQAGLGNHLSGSERLTLLAPLNSVFKDGTPPIDAHTRNLLRNHIIKDQLASKYLYHGQTLETLGGKKLRVFVYRNSLCIENSCIAAHDKRGRYGTLFTMDRVLTPPMGTVMDVLKGDNRFSMLVAAIQSAGLTETLNREGVYTVFAPTNEAFRALPPRERSRLLGDAKELANILKYHIGDEILVSGGIGALVRLKSLQGDKLEVSLKNNVVSVNKEPVAEPDIMATNGVVHVITNVLQPPANRPQERGDELADSALEI
With B2, the “CD31-positive microvessels in tumor (intratumoral microvessel density)” value in experiment [3] is “decrease in CD31-positive microvessels”. Besides, the “binding to HUVECs surface” value with HUVECs [4] is given as “bound to HUVECs surface in a dose-dependent manner”.
